{
  "source": "patent US20230192837A1",
  "about": "(published 2023)",
  "binders": {"B1": {"name": "Ab3 (antibody, human IgG1, kappa, V domains shown)", "VH": "QVQLVQSGAEVKKPGASVKVSCKASGYTFTGYYMHWVRQAPGQGLEWMGWINPYTGGTKYAQKFQGRVTMTRDTSISTAYMELSRLRSDDTAVYYCARDLYGSSNYGMDVWGQGTTVTVSS", "VL": "not shown"}, "B2": {"name": "Ab5 (antibody, human IgG1, kappa, V domains shown)", "VH": "B1 VH", "VL": "DIQMTQSPSSLSASVGDRVTITCQASQGIRNYLNWYQQKPGKAPKLLIYDASNLETGVPSRFSGSGSGTDFTFTISSLQPEDIATYYCQQYDKLPLTFGGGTKVEIKR"}, "B3": {"name": "Ab4 (antibody, human IgG1, kappa, V domains shown)", "VH": "B1 VH", "VL": "not shown"}, "B4": {"name": "Ab2 (antibody, human IgG1, kappa, V domains shown)", "VH": "B1 VH with M34I, K59N", "VL": "not shown"}, "B5": {"name": "Ab1 (antibody, human IgG1, kappa, V domains shown)", "VH": "B1 VH with M34I, K59N, M108G", "VL": "not shown", "notes": "Human IgG1 with kappa light chain, expressed in CHO cells; also called exemplified anti-human TNFα antibody Ab1"}},
  "note": "Substitutions are numbered along the chain they refer to.",
  "data": [
    {"biological_target": "cynomolgus monkey TNFα (cynomolgus monkey, UniProt P79337 57-233, limits assumed)", "sequence (P79337 57-233 limits assumed, form in doubt)": "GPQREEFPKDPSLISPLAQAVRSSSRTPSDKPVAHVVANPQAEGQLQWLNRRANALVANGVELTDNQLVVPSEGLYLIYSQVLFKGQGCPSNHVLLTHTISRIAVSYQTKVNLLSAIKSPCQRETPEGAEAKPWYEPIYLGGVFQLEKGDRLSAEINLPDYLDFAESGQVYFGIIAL", "assay": "cell-based or functional assay", "units": {"IC50 of inhibition of soluble cynomolgus monkey TNFα induced cell killing of L929 cells": "µg/mL"}, "values": [
      {"binder": "B1", "IC50 of inhibition of soluble cynomolgus monkey TNFα induced cell killing of L929 cells": 0.02},
      {"binder": "B2", "IC50 of inhibition of soluble cynomolgus monkey TNFα induced cell killing of L929 cells": 0.03},
      {"binder": "B3", "IC50 of inhibition of soluble cynomolgus monkey TNFα induced cell killing of L929 cells": 0.02},
      {"binder": "B4", "IC50 of inhibition of soluble cynomolgus monkey TNFα induced cell killing of L929 cells": 0.02},
      {"binder": "B5", "IC50 of inhibition of soluble cynomolgus monkey TNFα induced cell killing of L929 cells": 0.02}
    ]},
    {"biological_target": "T1, human TNFα (human, UniProt P01375 57-233, limits assumed)", "T1 sequence (P01375 57-233 limits assumed, form in doubt)": "as the sequence (P79337 57-233 limits assumed, form in doubt) above, with K9R, P11L, V57L, T64R, N92T, L158R counted along it", "assay": "cell-based or functional assay", "units": {"IC50 of inhibition of soluble human TNFα induced cell killing of L929 cells": "µg/mL"}, "values": [
      {"binder": "B1", "IC50 of inhibition of soluble human TNFα induced cell killing of L929 cells": 0.19},
      {"binder": "B2", "IC50 of inhibition of soluble human TNFα induced cell killing of L929 cells": 0.22},
      {"binder": "B3", "IC50 of inhibition of soluble human TNFα induced cell killing of L929 cells": 0.19},
      {"binder": "B4", "IC50 of inhibition of soluble human TNFα induced cell killing of L929 cells": 0.13},
      {"binder": "B5", "IC50 of inhibition of soluble human TNFα induced cell killing of L929 cells": 0.16}
    ]},
    {"biological_target": "T2, rhesus macaque TNFα (rhesus macaque, UniProt P48094 77-233)", "T2 construct": "Bought (R&D Systems, Cat #1070-RM); also called rhesus macaque monkey TNFα", "T2 sequence (P48094 77-233 limits assumed)": "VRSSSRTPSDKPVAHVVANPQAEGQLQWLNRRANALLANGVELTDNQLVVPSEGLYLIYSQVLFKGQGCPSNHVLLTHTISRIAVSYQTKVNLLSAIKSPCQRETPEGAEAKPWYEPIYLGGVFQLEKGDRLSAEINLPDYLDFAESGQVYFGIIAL", "assay": "antigen-down ELISA, TNFα coated on plate, anti-human kappa-AP detection", "procedure": "Once the color developed (approximately 15-30 min), plates were read at 560 nm OD on a Molecular Device Spectramax plate reader and data was acquired using Softmax Pro 4.7 software. Data analysis was performed in GraphPad Prism.", "units": {"EC50": "µg/mL"}, "values": [
      {"binder": "B5", "EC50": 0.155}
    ]},
    {"biological_target": "membrane human TNFα (non-cleavable TNFα) expressed on CHO cells (human, UniProt P01375 1-233)", "assay": "cell-based or functional assay", "units": {"IC50 of inhibition of membrane TNFα-induced cell killing of L929 cells": "µg/mL"}, "values": [
      {"binder": "B2", "IC50 of inhibition of membrane TNFα-induced cell killing of L929 cells": 0.2}
    ]},
    {"biological_target": "T1, human TNFα", "assay": "cell-based or functional assay", "remark": "another data set of the same source", "units": {"% Inhibition of human TNFα-induced plasma CXCL1 in C57/B6 mice, dose 0.3 mg/kg": "%", "% Inhibition of human TNFα-induced plasma CXCL1 in C57/B6 mice, dose 3 mg/kg": "%"}, "values": [
      {"binder": "B1", "% Inhibition of human TNFα-induced plasma CXCL1 in C57/B6 mice, dose 0.3 mg/kg": 64.4, "% Inhibition of human TNFα-induced plasma CXCL1 in C57/B6 mice, dose 3 mg/kg": 86.6},
      {"binder": "B2", "% Inhibition of human TNFα-induced plasma CXCL1 in C57/B6 mice, dose 0.3 mg/kg": 49.8, "% Inhibition of human TNFα-induced plasma CXCL1 in C57/B6 mice, dose 3 mg/kg": 84.3},
      {"binder": "B3", "% Inhibition of human TNFα-induced plasma CXCL1 in C57/B6 mice, dose 0.3 mg/kg": 57.2, "% Inhibition of human TNFα-induced plasma CXCL1 in C57/B6 mice, dose 3 mg/kg": 92.6},
      {"binder": "B4", "% Inhibition of human TNFα-induced plasma CXCL1 in C57/B6 mice, dose 0.3 mg/kg": 46.5, "% Inhibition of human TNFα-induced plasma CXCL1 in C57/B6 mice, dose 3 mg/kg": 82.1},
      {"binder": "B5", "% Inhibition of human TNFα-induced plasma CXCL1 in C57/B6 mice, dose 0.3 mg/kg": 63, "% Inhibition of human TNFα-induced plasma CXCL1 in C57/B6 mice, dose 3 mg/kg": 83.9}
    ]}
  ]
}
